Results from patent publication US12662540B2, “Compositions and methods for inhibition of MICA/B shedding” (DANA-FARBER CANCER INSTITUTE, INC., priority 2017, dated 2026).
Entries after “also recorded” stand apart in the source; their conditions may differ.

Legend:
A375 melanoma cell line = assay: In vitro assay for inhibition of MICA shedding, A375 cells (sandwich ELISA of supernatant); format: cell-based, human; details: A375 cells treated for 24 hours
Procedure: Tumor cells (5×10^4 or 1×10^5 per well, depending on the cell line) were cultured for 24 to 72 hours in 96-well plates (flat-bottom plates for adherent cell lines, U-bottom plates for suspension cell lines). Human and murine cell lines were cultivated in RPMI-1640 or DMEM media, respectively, supplemented with 10% fetal bovine serum (FBS), 1× Glutamax® (Gibco), and 1× Penicillin and Streptomycin (Gibco). MICA or control antibodies were added at different concentrations, and shed MICA/B was then detected in supernatants by ELISA using the Human MICA ELISA kit (Ab59569, Abcam) or Human MICB DuoSet ELISA kit (DY1599, R&D Systems), using the procedures recommended by the manufacturers. For both assays, standard curves were generated using recombinant MICA*008 or MICB*005 extracellular domain proteins that had been expressed using the Baculovirus system.

A375 cells = assay: NK cell cytotoxicity assay (51Cr release), human NK cells against human tumor cells; format: cell-based; details: human NK cells; antibody added at time of killing assay (10 μg/ml, 66.7 nM)
Procedure: Human NK cells were isolated from fresh leukapheresis blood collars that had been generated by Brigham & Women's Hospital, Boston, from healthy donors. Samples were diluted with an equal volume of PBS and blood mononuclear cells were isolated by Ficoll density gradient centrifugation. Cells were washed with PBS, and NK cells were isolated by negative selection using the Human NK Cell Isolation Kit (130-092-657, Miltenyi Biotech) using an autoMACS system (Miltenyi Biotech). Enriched NK cells (purity of 50-90%) were then incubated with anti-CD56 (PE or APC conjugated) and anti-CD3 (FITC or Pacific Blue conjugated) (Biolegend) and sorted using a BD FACS Aria. Following sorting, NK cell purity was ˜99%. These cells were cultured for twelve hours in complete RPMI media supplemented with 300-1000 U/ml of recombinant human IL-2 (BD Pharmingen).
Target cells were labeled for 1 hour with 100 μCi of ^51[Cr] per 2×10^6 cells in 0.2 ml of media. Subsequently, cells were washed and plated in V-bottom 96-wells plates (5,000 target cells per well). To determine the experimental release, NK cells were added in an equal volume, but at different ratios. To determine maximum and spontaneous release, target cells were mixed with an equal volume of 2% Triton-X100 in PBS or an equal volume of media, respectively. Antibodies were added at a final concentration of 10 μg/ml.
For experiments shown in FIGS. 1E, 10, and 13E antibodies were added at the time of the killing assay. For FIGS. 3A-B, antibodies were added to tumor cells 48 hours prior to labelling with ^51[Cr] to inhibit MICAS shedding. The isotype control antibody for assays with human NK cells was recombinant human IgG1 Fc (BE0096, BioXcell). […] At the end of the incubation period, plates were centrifuged (2000 rpm, 5 minutes), part of the supernatant was collected, mixed with scintillation fluid, and radioactivity was quantified using a MicroBeta2 reader (Perkin Elmer). Specific killing was calculated using the following formula: 100×(Experimental release−Spontaneous release)/(Maximum release−Spontaneous release).

human NK cells = assay: Intracellular interferon-γ production by NK cells co-cultured with tumor cells; format: cell-based; details: co-culture with tumor cells, antibody 10 μg/ml
Procedure: NK cells were co-cultured for 6 hours at a ratio of 5:1 with tumor cells in the presence of Brefeldin-A (Biolegend). After the incubation time, Fc receptors were blocked, cells stained with NK cell markers, stained further with a dead cell marker (Zombie Yellow, Biolegend), and subsequently processed for intracellular interferon-γ labeling. Briefly, cells were fixed with BD Cytofix/Cytoperm™ Fixation and Permeabilization Solution (BD Pharmingen), permeabilized with Permeabilization Wash Buffer (Biolegend), and stained with APC-conjugated anti-human interferon-γ (4S.B3, Biolegend) or appropriate isotype control. Fluorescence spectra were acquired using a LSR Fortessa flow cytometer and analyzed by FlowJo.

B16F10-MICA cells = assay: B16F10 metastasis model in immunocompetent mice; format: in vivo, C57BL/6 mice
Procedure: The B16F10 cells were transduced with the luciferase-based lentiviral vector to express MICA. B16F10-MICA cells (5×10^5) were injected intravenously into C57BL/6 mice through the tail vein. Fewer tumor cells (4×10^5) were injected into NK cell-deficient mice given that the absence of NK cells results in a very large number of metastases. 7C6 or isotype control antibodies (MPC-11 or C1184, BioXcell, which have mIgG2b and mIgG2a isotypes, respectively) were administered intraperitoneally on days 1, 2, 7 and 10 at a dose of 200 μg per mouse. Antibody blockade and depletion were performed as described previously (24). For antibody-based depletion of CD8 T cells or NK cells, 100 μg per mouse of anti-CD8 (5358, BioXcell), anti-NK1.1 (PK136, BioXcell), and anti-asialo(as)GM1 (Wako Chemicals) were given on days −1, 0, and 7. For antibody blockade, anti-NKG2D (HMG2D, BioXcell) or control IgG (MOPC-21) were given at 200 μg per mouse on days −1, 0, 5, 7 and 10. Blood samples were collected at multiple time points by retro-orbital bleeding under isoflurane anesthesia. Mice were euthanized by CO2 inhalation, lungs were perfused with PBS and fixed in formalin solution, and the number of superficial metastases was counted under a stereomicroscope. Histology was performed by the Rodent Histopathology Core of the Dana-Farber/Harvard Cancer Center using lungs that had not been perfused with PBS.
Macrophages were depleted by intravenous injection of 0.2 ml clodronate liposomes (Encapsula NanoSciences LLC). In the humanized and B16F10-MICA metastasis models, 0.2 ml of clodronate liposomes or control liposomes were injected i.v. (on the same day of tumor cell inoculation and then once weekly).

[1] = test system: A375 human melanoma cell line; assay: Dacarbazine combination with MICA/B antibody, A375 cells; format: cell-based
RPMI-8226 cell line = assay: Proteasome inhibitor combination with MICA/B antibody, multiple myeloma cell lines; format: cell-based, human

B1: 7C6: monoclonal antibody from mice immunized with recombinant MICA α3 domain; parental mIgG2b; VH SEQ ID NO: 7, VL SEQ ID NO: 8 (antibody)
VH: QIQLVQSGPELKKPGETVKVSCKASGYMFTNYAMNWVKQAPEKGLKWMGWINTHTGDPTYADDFKGRIAFSLETSASTAYLQINNLKNEDTATYFCVRTYGNYAMDYWGQGTSVTVSSAKTTAPSVYPLAPVCGDTTGSSVTLGCLVKGYFPEPVTLTWNSGSLSSGVHTFPAVLQSDLYTLSSSVTVTSS
VL: DIQMTQTTSSLSASLGDRVTISCSASQDISNYLNWYQQKPDGTVKLLIYDTSILHLGVPSRFSGSGSGTDYSLTISNLEPEDIATYYCQQYSKFPRTFGGGTTLEIK
modifications: mAb 7C6 heavy chain amino acid sequence; mAb 7C6 light chain amino acid sequence
Question: For B1, which “MICA shedding (shed MICA released into supernatant)” value (A375 melanoma cell line) is on record?
Answer: inhibit MICA release into the supernatant

Question: And the “NK cell mediated cytotoxicity against human tumor cells” value (A375 cells)?
Answer: increases NK cell cytotoxicity

Question: What about the “IFNγ (cytokine) production by human NK cells” value (human NK cells) of the same molecule?
Answer: increases NK cell cytotoxicity and cytokine production

Question: What about the “shed MICA in serum” value (B16F10-MICA cells; B16F10-MICA i.v. in C57BL/6 mice) of the same molecule?
Answer: undetectable; also recorded: reduced shed MICA in the sera

Question: And the “therapeutic activity against lung metastases after NK cell or CD8 T cell depletion” value (B16F10-MICA cells; anti-asGM1, anti-NK1.1 or anti-CD8β)?
Answer: NK cells, but not CD8 T cells, were essential for the therapeutic activity

Question: What about the “therapeutic activity in Prf1−/− and Ifng−/− mice” value (B16F10-MICA cells; lung metastases day 14) of the same molecule?
Answer: therapeutic efficacy was lost in perforin (Prf1) but not IFNγ (Ifng) deficient mice; also recorded: Perforin but not interferon-γ expression is required for therapeutic activity

Question: What about the “human NK cell killing of A375 cells, dacarbazine combination with MICA/B antibody” value ([1]; 30 mM dacarbazine, 10 μg/ml 7C6, 48 hours) of the same molecule?
Answer: is increased by dacarbazine combination with MICA/B antibody

Question: And the “MICA/B shedding (6D4-PE staining)” value ([1]; A375, 48 hours, 10 μg/ml antibody with dacarbazine)?
Answer: inhibited MICA/B shedding

Question: And the “human NK cell cytotoxicity against RPMI-8226, bortezomib plus antibody” value (RPMI-8226 cell line; 1 nM bortezomib, versus PBS+Isotype)?
Answer: Human NK cell cytotoxicity is increased

Question: What about the “surface MICA/B, antibody plus proteasome inhibitor” value (RPMI-8226 cell line; RPMI-8226, 24 hours, 10 mg/ml 7C6) of the same molecule?
Answer: expresses higher levels of surface MICA/B
